47 variants from the RNAGym collection of RNA variant scans (doi:10.7554/elife.80360) can be followed below.

To fix the notation:
B1: Hammerhead Ribozyme (parent)
chain: ACCGGAUGUGCUUUCCGGUCUGAUGAGUCCGUGAGGACGAAACAG

Variants of B1 are the subject of this series. Kind of series: self-cleavage, relative activity (ratio to wild type); higher = more cleavage; co-transcriptional.
ACCGGAUGUGCGUUCCGGUCUGAUGAGUCCGUGAGGACGAAACCG [U12G A44C]: the self-cleavage amounted to 0.499. For ACCGGAUGUGCUUUCCGGUCUGAUGAGUCCGUGAGGACGAAACAC [G45C], the self-cleavage turned out to be 0.844. Regarding ACCGGAUGUGCCUUCUGGUCUGAUGAGUCCGUGAGGACGAAACAG [U12C C16U], the self-cleavage turned out to be 0.878. Regarding ACCGGAUGUGCUAACCGGUCUGAUGAGUCCGUGAGGACGAAACAG [U13A U14A], the self-cleavage was 1.15. Turning to AGCGGAUGUGCUUUCCGGUCUGAUGAGUCGGUGAGGACGAAACAG [C2G C30G], the self-cleavage turned out to be 0.237.

ACCGGAUGUGCUUUCCGGUCUGAUGAGUCCGUGAGUACGAAACAA [G36U G45A]: the self-cleavage was determined as 0.452. To ACCGGAUGUGCUUUCCGUUCUGAUGAGUCCGUGAGGACGAUACAG [G18U A41U] belongs 0.385; to ACCGGAGGUGCUUUCAGGUCUGAUGAGUCCGUGAGGACGAAACAG [U7G C16A], 0.989; to ACCGGAUGUGCUUUCCGGUCUGCUGAGUCCGUGGGGACGAAACAG [A23C A34G], 0.342.

For the variant ACCGGAUGUGCUUUCCGGUCUGAGGAGUCCGUGAGGUCGAAACAG [U24G A37U], the self-cleavage is 0.854. Turning to UUCGGAUGUGCUUUCCGGUCUGAUGAGUCCGUGAGGACGAAACAG [A1U C2U], the self-cleavage came out at 0.598. Consider ACAGGAUGUGCUUUCCGGUCUGAUGAGUCCGCGAGGACGAAACAG [C3A U32C], for which the self-cleavage is 0.803.

Regarding ACCGGAUGUGUUUUCCGGUCUGGUGAGUCCGUGAGGACGAAACAG [C11U A23G], the self-cleavage was 0.39. As to ACCGGAUGUGCUUUCCGGUCUGAUGAGUACGUGAGGACGAGACAG [C29A A41G], the self-cleavage was 0.339. Take ACCGGAUGUGCUUUCCGGUUUGAUGGGUCCGUGAGGACGAAACAG [C20U A26G]: the self-cleavage is 0.262. Consider ACCGGAUGUGCUUUCCGGUCUGAUGAGACUGUGAGGACGAAACAG [U28A C30U], for which the self-cleavage was 0.562. For ACCGGACGUGCUUUCCGGUCUGAUGAGUCCGUGAGGACGGAACAG [U7C A40G], the self-cleavage turned out to be 0.382. For ACCGUAAGUGCUUUCCGGUCUGAUGAGUCCGUGAGGACGAAACAG [G5U U7A], the self-cleavage was determined as 0.87. As to ACCGGCUGUGCUUUCCGGUCUGAUGAGUCCAUGAGGACGAAACAG [A6C G31A], the self-cleavage came to 0.778. For the variant ACCGGAUGUGCUUUCCGGUCUGAUGAAUCCGUGAGGACGAAACAA [G27A G45A], the self-cleavage turned out to be 0.416. With ACCGGAUGUGCUUUCCGGUCUGCUGAGUCCGGGAGGACGAAACAG [A23C U32G], the self-cleavage stood at 0.383. Take ACCGGAUGUGCUUUCCGGUCGGAUGAGUCCGUGAGGACGUAACAG [U21G A40U]: the self-cleavage was found to be 0.331. With ACCGGAUGUGCUUUCCGGUUUGAUGAGUCCGUGAGGUCGAAACAG [C20U A37U], the self-cleavage came to 0.403. ACCGGAUGUGCUUUCCGGUCUGAUGACUACGUGAGGACGAAACAG [G27C C29A]: the self-cleavage was determined as 0.414.

In the case of ACCGGAUGUGCUUUCCGGUCUGAUGAGGCCGUGAGGACCAAACAG [U28G G39C], the self-cleavage came to 0.323. For ACCGGAUGUGCUUUCCGGUUUGAUGAGUCCGUGAGGACCAAACAG [C20U G39C], the self-cleavage is 0.362. Consider ACCGGAUCUGCUUUCCGGUCUGAUGAGUCCGUGAGGACGAAACAC [G8C G45C], for which the self-cleavage is 0.717. With ACCGGAUGUGCUUUCCGGUCUGAUGAGUCCAUGAGGUCGAAACAG [G31A A37U], the self-cleavage stood at 0.866. Regarding ACCGGAUGUGGUUUCCGGUCUGAUGAGUCCGUGAGGACGAAACUG [C11G A44U], the self-cleavage was 0.648. With ACCGGAUGUGCUUUCCGUUCUGAGGAGUCCGUGAGGACGAAACAG [G18U U24G], the self-cleavage turned out to be 0.607.

On to ACCGGAUGUGGUUUCCGGUAUGAUGAGUCCGUGAGGACGAAACAG [C11G C20A], for which the self-cleavage is 0.477.

On to ACCGUAUGUGCUUUCCGGUCUGAUGAGUCAGUGAGGACGAAACAG [G5U C30A], for which the self-cleavage came to 0.795.

On to ACCGGAUGUGCUUACCGGUCUUAUGAGUCCGUGAGGACGAAACAG [U14A G22U], for which the self-cleavage turned out to be 0.331. As for ACCGGAUGUGCUUUCCGGUCUGAUGACUCCGUGAGGACGAAAGAG [G27C C43G], the self-cleavage was found to be 0.26. As for ACCGGAUGUGCUUUCCUGUCUGACGAGUCCGUGAGGACGAAACAG [G17U U24C], the self-cleavage amounted to 0.697. Regarding ACCGGAUGUGCUUUCCGGUCUGAUGAGUCCAUGAGGACUAAACAG [G31A G39U], the self-cleavage was determined as 0.315. To ACCGGAUGUGCUUUCCGGUCUGCUGAGUCGGUGAGGACGAAACAG [A23C C30G] belongs 0.354; to ACCGGAUGUGCUUUCCGGCCUGAUGAGUCCGUGGGGACGAAACAG [U19C A34G], 0.478; to ACCGGAUGUGCUUUGCGGUCUGAUGAGUCCGUGAGGUCGAAACAG [C15G A37U], 0.367. ACCGGAUGUGCUUUCCGGUCUGUUGAGACCGUGAGGACGAAACAG [A23U U28A]: the self-cleavage was determined as 0.375. Take ACCGGAUUUGCUUUCCGGUCUGAUGAGUCCGUGACGACGAAACAG [G8U G35C]: the self-cleavage was 0.842. Under AUCGGAUGUGCAUUCCGGUCUGAUGAGUCCGUGAGGACGAAACAG [C2U U12A] stands 1.26. Regarding ACCGGAUGUGCUUUCCUGUCUGAUGAGUCCGUGAAGACGAAACAG [G17U G35A], the self-cleavage is 0.642. Consider ACCGGAUGUGCUUUCCGGUCUGAUGAGUCCGUGACGACGCAACAG [G35C A40C], for which the self-cleavage stood at 0.466. In the case of ACCGGAUGUGCUUACCGGUCUGAUGAGUCCGUGAGGACGUAACAG [U14A A40U], the self-cleavage came out at 0.237. As for ACCGGAUGUGCUUUCCGGUCUGAUGAGUCCGUGGGGACGAAACAC [A34G G45C], the self-cleavage worked out at 0.551. On to ACCGGAGGUGAUUUCCGGUCUGAUGAGUCCGUGAGGACGAAACAG [U7G C11A], for which the self-cleavage is 1.6.
